Drawing on patent US20230192896A1 (published 2023), this text covers Kd for 5 molecules.

To fix the notation:
T1: FX zymogen (UniProt P00742 41-179; P00742 183-488)
T1 chain 1: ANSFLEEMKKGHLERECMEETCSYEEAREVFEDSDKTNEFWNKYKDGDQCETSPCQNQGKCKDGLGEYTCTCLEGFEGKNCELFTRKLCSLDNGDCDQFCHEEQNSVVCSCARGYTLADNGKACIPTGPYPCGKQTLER
T1 chain 2: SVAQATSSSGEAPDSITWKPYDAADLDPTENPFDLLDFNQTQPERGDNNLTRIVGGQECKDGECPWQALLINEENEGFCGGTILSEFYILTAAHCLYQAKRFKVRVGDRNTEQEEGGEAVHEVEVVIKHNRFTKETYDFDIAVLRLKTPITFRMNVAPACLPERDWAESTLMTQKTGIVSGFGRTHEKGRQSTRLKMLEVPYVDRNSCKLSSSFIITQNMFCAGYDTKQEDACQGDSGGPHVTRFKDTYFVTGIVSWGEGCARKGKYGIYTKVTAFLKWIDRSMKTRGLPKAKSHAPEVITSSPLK

B1: BIIB-12-909 (antibody, V domains shown)
VH: QVQLVESGGGVVQPGRSLRLSCAASGFTFSSYGMHWVRQAPGKGLEWVAVISYDGSNKYYADSVKGRFTISRDNSKNTLYLQMNSLRAEDTAVYYCAKGKHRRRSFDIWGQGTMVTVSS
VL: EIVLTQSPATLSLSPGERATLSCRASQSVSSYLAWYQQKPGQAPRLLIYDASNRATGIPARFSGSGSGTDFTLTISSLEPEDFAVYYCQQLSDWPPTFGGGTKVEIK
B2: BIIB-12-935 (antibody, V domains shown)
VH: QVQLVESGGGVVQPGRSLRLSCAASGFTFSSYGMHWVRQAPGKGLEWVAVISYDGSNKYYADSVKGRFTISRDNSKNTLYLQMNSLRAEDTAVYYCARELEYGHYGMDVWGQGTTVTVSS
VL: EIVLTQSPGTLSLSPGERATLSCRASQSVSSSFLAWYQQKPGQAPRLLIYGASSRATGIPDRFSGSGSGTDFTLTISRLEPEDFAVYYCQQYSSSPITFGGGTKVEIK
B3: BIIB-12-1310 (antibody, V domains shown)
VH: EVQLVESGGGLVKPGGSLRLSCAASGFTFSSYSMNWVRQAPGKGLEWVSSISSSSSYIYYADSVKGRFTISRDNAKNSLYLQMNSLRAEDTAVYYCARLGGYGSSQRYFDLWGRGTLVTVSS
VL: EIVLTQSPATLSLSPGERATLSCRASQSVSRYLAWYQQKPGQAPRLLIYDASNRATGIPARFSGSGSGTDFTLTISSLEPEDFAVYYCEQASNWPPTFGGGTKVEIK
B4: BIIB-12-913 (antibody, V domains shown)
VH: QVQLVQSGAEVKKPGASVKVSCKASGYTFTSYGISWVRQAPGQGLEWMGWISAYNGNTNYAQKLQGRVTMTTDTSTSTAYMELRSLRSDDTAVYYCARGGVSRFWGQGTLVTVSS
VL: EIVMTQSPATLSVSPGERATLSCRASQSVSSNLAWYQQKPGQAPRLLIYGASTRATGIPARFSGSGSGTEFTLTISSLQSEDFAVYYCQQYAPYPPLTFGGGTKVEIK
B5: BIIB-12-914 (antibody, V domains shown)
VH: QVQLVQSGAEVKKPGASVKVSCKASGYTFTSYYMHWVRQAPGQGLEWMGIINPSGGSTSYAQKFQGRVTMTRDTSTSTVYMELSSLRSEDTAVYYCARAPRYRGTMDVWGQGTTVTVSS
VL: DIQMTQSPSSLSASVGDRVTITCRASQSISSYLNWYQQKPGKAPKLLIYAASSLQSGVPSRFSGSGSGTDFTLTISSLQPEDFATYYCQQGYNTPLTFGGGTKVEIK

This test has as its target T1, FX zymogen. The test is described as follows: BLI.
What is called Kd is the free concentration of one partner at which half of the binding sites on the other are occupied at equilibrium, for simple one-to-one binding. A lower Kd goes with a tighter complex. In the case of B1, the Kd amounted to 69.7 nM.
On to B2, for which the Kd stood at 38.8 nM.
Consider B3, for which the Kd was determined as 46.1 nM.
The molecule B4 showed a Kd of 78.5 nM.
Molecule B5 registered a Kd of 48.1 nM.
